We go through four molecules from US20230212319A1, “NOVEL ANTIGEN BINDING DOMAINS AND SYNTHETIC ANTIGEN RECEPTORS INCORPORATING THE SAME” (University of Southern California, priority 2020, published 2023).

B1: 22096 (protein)
chain: MALPVTALLLPLALLLHAARPQLQLQESGPGLVKPSETLSLTCTVSGDSISSGDYYWGWIRQPPGKGLEWIGHIYYSGVTYYNPSLKSRVTISVDTSRNQFSLKLSSVTAADTAVYYCTREDSSNWRSRGQGTLVTVSSLEGQPKANPTVTLFPPSSEELQANKATLVCLISDFYPGAVTVAWKADGSPVKAGVETTKPSKQSNNKYAASSYLSLTPEQWKSHRSYSCQVTHEGSTVEKTVAPTECSPIKTDVITMDPKDNCSKDANDTLLLQLTNTSAYYMYLLLLLKSVVYFAIITCCLLRRTAFCCNGEKSRAKRSGSGATNFSLLKQAGDVEENPGPTSMDWIWRILFLVGAATGAHSFEVQLLESGGGLIQPGGSLRLSCAASGFTFSSHAMTWVRQAPGKGLEWVSAISGSGDYTHYADSVKGRFTISRDNSKNTVYLQMNSLRAEDSAVYYCAKDEDGGSLLGHRGQGTLVTVSSTRASTKGPSVFPLAPSSKSTSGGTAALGCLVKDYFPEPVTVSWNSGALTSGVHTFPAVLQSSGLYSLSSVVTVPSSSLGTQTYICNVNHKPSNTKVDKRVEPKSCEVKTDSTDHVKPKETENTKQPSKSCHKPKAIVHTEKVNMMSLTVLGLRMLFAKTVAVNFLLTAKLFFLRAKRSGSGVKQTLNFDLLKLAGDVESNPGPSRGHMTEYKPTVRLATRDDVPRAVRTLAAAFADYPATRHTVDPDRHIERVTELQELFLTRVGLDIGKVWVADDGAAVAVWTTPESVEAGAVFAEIGPRMAELSGSRLAAQQQMEGLLAPHRPKEPAWFLATVGVSPDHQGKGLGSAVVLPGVEAAERAGVPAFLETSAPRNLPFYERLGFTVTADVEVPEGPRTWCMTRKPGA
B2: 22020 (protein)
chain: MALPVTALLLPLALLLHAARPQLQLQESGPGLVKPSETLSLTCTVSGDSISSGDYYWGWIRQPPGKGLEWIGHIYYSGVTYYNPSLKSRVTISVDTSRNQFSLKLSSVTAADTAVYYCTREDSSNWRSRGQGTLVTVSSLDSGGGGSFEQLQLQESGPGLVKPSETLSLTCTVSGGSISSGDYYWGWIRQPPGKGLEWIGHIYYSGATYYNPSLKSRVTISVDTSRNQFSLKLSSVTAADTAVYYCTRDDSSNWRSRGQGTLVTVSSTRIQNPDPAVYQLRDSKSSDKSVCLFTDFDSQTNVSQSKDSDVYITDKCVLDMRSMDFKSNSAVAWSNKSDFACANAFNNSIIPEDTFFPSPESSCDVKLVEKSFETDTNLNFQNLSVIGFRILLLKVAGFNLLMTLRLWSSRAKRSGSGVKQTLNFDLLKLAGDVESNPGPSRGHMTEYKPTVRLATRDDVPRAVRTLAAAFADYPATRHTVDPDRHIERVTELQELFLTRVGLDIGKVWVADDGAAVAVWTTPESVEAGAVFAEIGPRMAELSGSRLAAQQQMEGLLAPHRPKEPAWFLATVGVSPDHQGKGLGSAVVLPGVEAAERAGVPAFLETSAPRNLPFYERLGFTVTADVEVPEGPRTWCMTRKPGA
B3: 22209 (protein)
chain: MALPVTALLLPLALLLHAARPACPYINIYNAEPANPSEKNSPTQYAYGTGGGGSGGGGSGGGGSEFDIQMTQSPSSLSASVGDRVTITCKASDHINNWLAWYQQKPGQAPKLLIYGATTLETGVPSRFSGSGSGTDYTLTISSLQPEDFATYYCQQSWNTPWTFGQGTKLEIKRLEDLKNVFPPEVAVFEPSKAEIAHTQKATLVCLATGFYPDHVELSWWVNGKEVHSGVCTDPQPLKEQPALNDSRYCLSSRLRVSATFWQNPRNHFRCQVQFYGLSENDEWTQDRAKPVTQIVSAEAWGRADCGITSASYHQGVLSATILYEILLGKATLYAVLVSALVLMAMVKRKDSRGRAKRSGSGATNFSLLKQAGDVEENPGPTSATMDWIWRILFLVGAATGAHSGPQVQLQESGGGLAQAGGSLRLSCAASGRTFSMGWFRQAPGKEREFVAAITYSGGSPYYASSVRGRFTISRDNAKNTVYLQMNSLKPEDTAVYYCAANPTYGSDWNAENWGQGTQVTVSSGSGGGGSGGGGSGGGGSFEQVQLQQPGAELVKPGASVKMSCKASGYAFSSYWINWMKQKPGQGLEWIGQIYPGDGDTNYNGKFKGRATLTADTSSSTAYMQLSSLTSEDSAVYFCARSITTVVGCAMDYWGQGTSVTVSSTRIQNPDPAVYQLRDSKSSDKSVCLFTDFDSQTNVSQSKDSDVYITDKCVLDMRSMDFKSNSAVAWSNKSDFACANAFNNSIIPEDTFFPSSDVPCDVKLVEKSFETDTNLNFQNLSVIGFRILLLKVAGFNLLMTLRLWSSRAKRSGSGVKQTLNFDLLKLAGDVESNPGPSRGHMTEYKPTVRLATRDDVPRAVRTLAAAFADYPATRHTVDPDRHIERVTELQELFLTRVGLDIGKVWVADDGAAVAVWTTPESVEAGAVFAEIGPRMAELSGSRLAAQQQMEGLLAPHRPKEPAWFLATVGVSPDHQGKGLGSAVVLPGVEAAERAGVPAFLETSAPRNLPFYERLGFTVTADVEVPEGPRTWCMTRKPGA
B4: 22091 (protein)
chain: MALPVTALLLPLALLLHAARPQLQLQESGPGLVKPSETLSLTCTVSGDSISSGDYYWGWIRQPPGKGLEWIGHIYYSGVTYYNPSLKSRVTISVDTSRNQFSLKLSSVTAADTAVYYCTREDSSNWRSRGQGTLVTVSSLEDLKNVFPPEVAVFEPSKAEIAHTQKATLVCLATGFYPDHVELSWWVNGKEVHSGVCTDPQPLKEQPALNDSRYCLSSRLRVSATFWQNPRNHFRCQVQFYGLSENDEWTQDRAKPVTQIVSAEAWGRADCGITSASYHQGVLSATILYEILLGKATLYAVLVSALVLMAMVKRKDSRGRAKRSGSGATNFSLLKQAGDVEENPGPTSMDWIWRILFLVGAATGAHSFEVQLLESGGGLIQPGGSLRLSCAASGFTFSSHAMTWVRQAPGKGLEWVSAISGSGDYTHYADSVKGRFTISRDNSKNTVYLQMNSLRAEDSAVYYCAKDEDGGSLLGHRGQGTLVTVSSTRIQNPDPAVYQLRDSKSSDKSVCLFTDFDSQTNVSQSKDSDVYITDKCVLDMRSMDFKSNSAVAWSNKSDFACANAFNNSIIPEDTFFPSPESSCDVKLVEKSFETDTNLNFQNLSVIGFRILLLKVAGFNLLMTLRLWSSRAKRSGSGVKQTLNFDLLKLAGDVESNPGPSRGHMTEYKPTVRLATRDDVPRAVRTLAAAFADYPATRHTVDPDRHIERVTELQELFLTRVGLDIGKVWVADDGAAVAVWTTPESVEAGAVFAEIGPRMAELSGSRLAAQQQMEGLLAPHRPKEPAWFLATVGVSPDHQGKGLGSAVVLPGVEAAERAGVPAFLETSAPRNLPFYERLGFTVTADVEVPEGPRTWCMTRKPGA

One assay deals with RAJI cells. In words: JNG assay, co-culture with RAJI cells. The format is cell-based. Particulars: JNG cells expressing construct, co-culture with Raji. An outline of the steps:
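Jurkat-NFAT-GFP (JNG) cells stably expressing SAR constructs via lentiviral transduction and puromycin/blasticidin selection were cocultured with target cells at E:T ~1:2 for ~4–18 h. NFAT-driven GFP was measured by FACS versus parental JNG cells; scores +/- to 5+ denote ~5–50% GFP-positive cells.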
B1: the “NFAT-GFP ASSAY: Raji” value is 2+ (refer to approximately 5%, 10%, 20%, 30%, 40% and 50% GFP positive cells).

As for B2, the “NFAT-GFP ASSAY: Raji” value is “+/- (refer to approximately 5%, 10%, 20%, 30%, 40% and 50% GFP positive cells)”.

On to B3, for which the “NFAT-GFP ASSAY: Raji” value was 2+ (refer to approximately 5%, 10%, 20%, 30%, 40% and 50% GFP positive cells).

For B4, the “NFAT-GFP ASSAY: Raji” value is “+ (refer to approximately 5%, 10%, 20%, 30%, 40% and 50% GFP positive cells)”.

A further assay concerns Nalm6 cells. Kind of assay: JNG assay, co-culture with Nalm6 cells. Format: cell-based. Particulars: co-culture with Nalm6. As for the experimental part: Cellular supernatant is collected and assayed for the induction of cytokines (e.g., IL2).
JNG (Jurkat cells expressing EGFP under an NFAT promoter) were infected with lentiviral vectors encoding different single chain and multi-chain SARs by spinfection in the presence of 8 µg/ml of Polybrene® (Sigma, Catalog no. H9268). The Jurkat-NFAT-GFP cells are engineered in such a way that the IL-2 promoter, which carries NFAT binding sites, is cloned upstream of the GFP gene. These cells have been used to study signaling via TCR and CAR. The different SARs were stably expressed in Jurkat NFAT-GFP cells by lentiviral mediated gene transfer, followed by selection with puromycin or blasticidin. No drug selection was used in case the construct lacked an antibiotic resistance gene. The SAR-expressing Jurkat-NFAT-GFP cells were cocultured with the target cells at E:T ratio of approximately 1:2 for approximately 4 hours to 18 hours. When the interaction between SIRs and their target antigen results in activation of the NFAT pathway, GFP expression is induced. […] GFP expression was monitored by FACS analysis. The Jurkat-NFAT-GFP (parental) cells were used as control. The structure of different constructs can be determined based on their names. For example, the construct CD8SP-CD19-hu-mROO5-1-vL-[hTCRa-C SDVP]-F-F2A-Spe-IgHSP-Apa-CD20-vHH-2HCD25-G4S-CDl9-hu-mROO5-1-vH-Mlu-[hTCRb-KACIAH]-F-P2A-PAC has the following modules from 5′ to 3′ direction: a CD8 signal peptide (CD8SP), the CD19 targeting hu-mROO5-1 vL fragment (CD19-hu-mROO5-1), Xho1 cloning site, human TCRa constant chain containing CSDVP mutations (hTCRa-CSDVP), Furine cleavage site (F), F2A ribosomal skip sequence (F2A), SpeI site, human IgH signal peptide (IgHSP), Apa I restriction enzyme site, camelid CD20-2HCD25-VHH module targeting CD20, BamHI restriction enzyme site, Glycinex4-serine linker (G4S), BstI restriction enzyme site, CD19-hu-mROO5-1-vH fragment targeting CD19, Mlu I restriction enzyme site, human TCRb constant chain containing KACIAH mutations ([hTCRb-KACIAH]), Furine cleavage site (F), P2A ribosomal skip sequence and Puromycin resistance gene (PAC). The sequence of the other constructs in the table can be similarly determined from their names and by referring to the different Tables of this disclosure that provide the names and SEQ ID NO of the different modules. Alternatively, the composition and modular architecture of the different SAR constructs can be determined from their sequences by bioinformatics tools, including using nucleic acid and amino acids homology searches. A SAR is considered positive in the assay in case the SAR expressing Jurkat-NFAT-GFP cells show greater % GFP positive cells when cultured with the target cell line as compared to parental Jurkat-NFAT-GFP cells. The signs +/-, +, 2+ etc. after the name of the cell lines indicate the relative degree of positivity on the Jurkat-NFAT-GFP assay as measured by the % GFP positive cells after culture of the SAR expressing Jurkat-NFAT-GFP cells with that cell line above the % GFP cells observed in parental Jurkat NFAT-GFP cells serving as controls. In general, the number +/-, +, 2+, 3+, 4+, 5+ refer to approximately 5%, 10%, 20%, 30%, 40% and 50% GFP positive cells. The % of GFP induction in the above assay is dependent not only the relative strength of the SAR but also, among other factors, on the relative level of expression of the SAR in the JNG cells and the relative level of expression of the target antigen in the target cell line. To control for the difference in gene transduction efficiency of the different SAR constructs, the experiment was conducted with JNG cells transduced with SAR constructs co-expressing a drug resistance gene (e.g., puromycin or PAC) followed by drug selection to generate a stable population of SAR-expressing cells. […]
As for B1, the “NFAT-GFP ASSAY: Nalm6” value was “+ (refer to approximately 5%, 10%, 20%, 30%, 40% and 50% GFP positive cells)”.

On to B2, for which the “NFAT-GFP ASSAY: Nalm6” value is “+/- (refer to approximately 5%, 10%, 20%, 30%, 40% and 50% GFP positive cells)”.

With B3, the “NFAT-GFP ASSAY: Nalm6” value was 2+ (refer to approximately 5%, 10%, 20%, 30%, 40% and 50% GFP positive cells).

As for B4, the “NFAT-GFP ASSAY: Nalm6” value is “+/- (refer to approximately 5%, 10%, 20%, 30%, 40% and 50% GFP positive cells)”.
